Assay results published in US20020164738.

Biological target: T1, MAGE-3 protein purified from E. coli (pNB202, pRSET-A, N-terminal His tag)
T1 chain: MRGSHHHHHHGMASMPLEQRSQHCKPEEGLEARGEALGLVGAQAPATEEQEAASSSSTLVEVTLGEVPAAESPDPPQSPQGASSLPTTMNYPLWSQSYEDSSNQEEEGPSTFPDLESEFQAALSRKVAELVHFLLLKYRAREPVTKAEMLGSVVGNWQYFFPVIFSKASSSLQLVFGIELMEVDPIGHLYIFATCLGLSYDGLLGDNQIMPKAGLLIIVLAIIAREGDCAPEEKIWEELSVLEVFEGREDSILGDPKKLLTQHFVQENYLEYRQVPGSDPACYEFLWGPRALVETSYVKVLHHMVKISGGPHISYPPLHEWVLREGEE

B1: pro-caspase-12 (48 kDa) synthesized in vitro, radioactively labeled (protein)
chain: MAARRTHERDPIYKIKGLAKDMLDGVFDDLVEKNVLNGDELLKIGESASFILNKAENLVENFLEKTDMAGKIFAGHIANSQEQLSLQFSNDEDDGPQKICTPSSPSESKRKVEDDEMEVNAGLAHESHLMLTAPHGLQSSEVQDTLKLCPRDQFCKIKTERAKEIYPVMEKEGRTRLALIICNKKFDYLFDRDNADTDILNMQELLENLGYSVVLKENLTAQEMETELMQFAGRPEHQSSDSTFLVFMSHGILEGICGVKHRNKKPDVLHDDTIFKIFNNSNCRSLRNKPKILIMQACRGRYNGTIWVSTNKGIATADTDEERVLSCKWNNSITKAHVETDFIAFKSSTPHNISWKVGKTGSLFISKLIDCFKKYCWCYHLEEIFRKVQHSFEVPGELTQMPTIERVSMTRYFYLFPGN
Q: With B1 as the protein, how does the “cleavage of radioactively labeled pro-caspase-12 by mature caspase-12 (SDS-PAGE, autoradiography)” value read?
A: Its value is “Addition of 12 µg of MAGE-3 inhibited the cleavage reaction by caspase-12 almost completely”.
